Biological target: the molecule itself
Assay: disassembly by dialysis, size exclusion chromatography / SEC-HPLC; self-association of capsid protein
Experimental: Dissasembly of plant produced CCMV virus particles: Purified CCMV was disassembled by dialysis against buffer A (50 mM Tris HCl pH7.5, 500 mM CaCl₂, 1 mM DTT, 0.2 mM PMSF) for 16-29 hours at 4° C. The disassembled virus was centrifuged at 14,000 rpm for 15 min at 4° C. to pellet the viral RNA. The remaining supernatant was dialyzed against buffer B (200 mM Tris HCl pH7.5, 1M NaCl, 1 mM DTT, 0.2 mM PMSF) for 2 hours at 4° C. The CCMV dissasembled into capsid protein dimers that were further purified by FPLC Superose 12 size exclusion chromatography. The diassambled CCMV was analyzed by SEC-HPLC (FIG. 8).

B1: Wild type CCMV coat protein encoded by sgRNA4 (other)
chain: STVGTGKLTRAQRRAAARKNKRNTRVVQPVIVEPIASGQGKAIKAWTGYSVSKWTASCAAAEAKVTSAITISLPNELSSERNKQLKVGRVLLWLGLLPSVSGTVKSCVTETQTTAAASFQVALAVADNSKDVVAAMYPEAFKGITLEQLTADLTIYLYSSAALTEGDVIVHLEVEHVRPTFDDSFTPVY
notes: also called CCMV CP; CCMV capsid protein
binding result: binds

From patent US20070041999A1 (published 2007)
